Measurements reported in paper PMC4323994 (Immunology and cell biology, 2014).
Where no end group is shown, it is not given here.

Experiments:
[1] = molecular target: HLA-DR molecule, DRB1*1101 (human); experiment: ELISA
[2] = molecular target: HLA-DR molecule, DRB1*0401 (human); experiment: ELISA

IC50 [1] [nM]	IC50 [2] [nM]	Binder
< 2000		VPPVVRWLNEQRYYGGGY (also: amino and carboxyl ends blocked) [C3d_(248–265)]
< 2000		QATFMVFQALAQYQKDAP (also: amino and carboxyl ends blocked) [C3d_(269–286)]
< 2000	< 2000	GKQLYNVEATSYALLALLQLKDFD (also: amino and carboxyl ends blocked) [C3d_(223–246)]
